{
  "source": "paper PMC9017247",
  "molecular_target": "SARS-CoV-2 viral particles (spike protein as shown on the whole virus) (SARS-CoV-2)",
  "data": [
    {"substance": "recombinant griffithsin lectin protein (rGRFT) (from UniProt P84801 1-121) (natural protein)", "values": [
      {"measurement": "IC50 of rGRFT on SARS-CoV-2 (Ank2, Wuhan like) infection of Vero E6 cells, cytopathic effect reading; rGRFT from 6 uM to 15.4 pM mixed with infectious particles", "value": 33.2, "unit": "nM"}
    ]}
  ]
}
